B1: Speckle-type POZ protein (Homo sapiens), O43791 (parent)
chain: MSRVPSPPPPAEMSSGPVAESWCYTQIKVVKFSYMWTINNFSFCREEMGEVIKSSTFSSGANDKLKWCLRVNPKGLDEESKDYLSLYLLLVSCPKSEVRAKFKFSILNAKGEETKAMESQRAYRFVQGKDWGFKKFIRRDFLLDEANGLLPDDKLTLFCEVSVVQDSVNISGQNTMNMVKVPECRLADELGGLWENSRFTDCCLCVAGQEFQAHKAILAARSPVFSAMFEHEMEESKKNRVEINDVEPEVFKEMMCFIYTGKAPNLDKMADDLLAAADKYALERLKVMCEDALCSNLSVENAAEILILADLHSADQLKTQAVDFINYHASDVLETSGWKSMVVSHPHLVAEAYRSLASAQCPFLGPPRKRLKQS
partner: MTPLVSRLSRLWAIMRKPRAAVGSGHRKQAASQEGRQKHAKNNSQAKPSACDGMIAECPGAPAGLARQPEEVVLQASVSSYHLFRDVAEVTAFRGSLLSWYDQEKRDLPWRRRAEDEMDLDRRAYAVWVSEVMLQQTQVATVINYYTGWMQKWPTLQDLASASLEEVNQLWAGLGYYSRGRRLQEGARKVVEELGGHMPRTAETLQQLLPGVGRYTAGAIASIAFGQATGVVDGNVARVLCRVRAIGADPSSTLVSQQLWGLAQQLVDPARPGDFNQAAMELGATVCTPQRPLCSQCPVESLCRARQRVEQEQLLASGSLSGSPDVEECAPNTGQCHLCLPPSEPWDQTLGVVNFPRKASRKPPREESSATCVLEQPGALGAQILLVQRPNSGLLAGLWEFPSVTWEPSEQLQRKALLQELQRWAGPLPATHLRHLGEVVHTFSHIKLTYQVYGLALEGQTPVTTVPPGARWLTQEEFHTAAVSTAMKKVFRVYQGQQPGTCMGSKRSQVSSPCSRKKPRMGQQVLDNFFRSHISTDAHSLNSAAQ
B2: Speckle-type POZ protein (Homo sapiens), O43791 (parent)
chain: B1 chain
partner: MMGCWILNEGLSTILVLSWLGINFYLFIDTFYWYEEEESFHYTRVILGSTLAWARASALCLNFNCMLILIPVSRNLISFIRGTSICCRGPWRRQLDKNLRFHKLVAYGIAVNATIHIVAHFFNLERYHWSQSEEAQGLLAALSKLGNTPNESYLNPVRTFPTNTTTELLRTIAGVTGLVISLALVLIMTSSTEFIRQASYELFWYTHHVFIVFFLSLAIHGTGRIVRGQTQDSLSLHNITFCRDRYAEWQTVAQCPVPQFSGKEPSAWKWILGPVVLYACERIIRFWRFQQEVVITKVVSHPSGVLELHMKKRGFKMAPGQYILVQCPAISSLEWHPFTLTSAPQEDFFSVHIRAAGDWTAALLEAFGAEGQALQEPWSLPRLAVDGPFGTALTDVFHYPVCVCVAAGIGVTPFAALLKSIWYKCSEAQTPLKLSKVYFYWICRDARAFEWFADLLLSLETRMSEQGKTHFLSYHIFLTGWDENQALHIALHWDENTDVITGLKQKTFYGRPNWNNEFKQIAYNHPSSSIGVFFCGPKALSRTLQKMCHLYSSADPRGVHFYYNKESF
B3: Speckle-type POZ protein (Homo sapiens), O43791 (parent)
chain: B1 chain
partner: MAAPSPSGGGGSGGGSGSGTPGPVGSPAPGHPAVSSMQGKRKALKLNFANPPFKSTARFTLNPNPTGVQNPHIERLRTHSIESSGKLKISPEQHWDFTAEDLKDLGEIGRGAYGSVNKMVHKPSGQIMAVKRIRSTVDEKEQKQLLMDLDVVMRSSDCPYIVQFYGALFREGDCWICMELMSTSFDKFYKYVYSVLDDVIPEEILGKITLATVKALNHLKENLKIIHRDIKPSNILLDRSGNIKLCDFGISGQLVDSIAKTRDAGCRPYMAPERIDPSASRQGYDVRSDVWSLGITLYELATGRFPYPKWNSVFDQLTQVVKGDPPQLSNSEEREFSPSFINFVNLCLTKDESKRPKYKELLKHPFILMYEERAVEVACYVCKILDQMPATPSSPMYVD
B4: Speckle-type POZ protein (Homo sapiens), O43791 (parent)
chain: B1 chain
partner: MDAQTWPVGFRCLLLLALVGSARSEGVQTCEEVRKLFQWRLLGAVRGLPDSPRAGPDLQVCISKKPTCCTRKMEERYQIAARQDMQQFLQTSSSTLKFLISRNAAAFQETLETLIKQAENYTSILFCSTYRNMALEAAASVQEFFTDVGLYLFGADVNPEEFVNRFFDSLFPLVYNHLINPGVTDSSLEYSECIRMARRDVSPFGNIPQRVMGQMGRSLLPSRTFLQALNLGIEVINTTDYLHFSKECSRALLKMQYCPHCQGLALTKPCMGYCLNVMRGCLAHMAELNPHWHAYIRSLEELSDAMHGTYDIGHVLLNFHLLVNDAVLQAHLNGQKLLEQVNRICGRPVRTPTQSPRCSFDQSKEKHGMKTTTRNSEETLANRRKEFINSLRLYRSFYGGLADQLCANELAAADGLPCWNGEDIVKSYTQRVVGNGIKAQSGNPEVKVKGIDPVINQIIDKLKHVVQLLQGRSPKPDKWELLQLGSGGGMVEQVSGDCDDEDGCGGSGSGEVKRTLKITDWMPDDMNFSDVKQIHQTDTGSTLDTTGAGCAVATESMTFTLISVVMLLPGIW
B5: Speckle-type POZ protein (Homo sapiens), O43791 (parent)
chain: B1 chain
partner: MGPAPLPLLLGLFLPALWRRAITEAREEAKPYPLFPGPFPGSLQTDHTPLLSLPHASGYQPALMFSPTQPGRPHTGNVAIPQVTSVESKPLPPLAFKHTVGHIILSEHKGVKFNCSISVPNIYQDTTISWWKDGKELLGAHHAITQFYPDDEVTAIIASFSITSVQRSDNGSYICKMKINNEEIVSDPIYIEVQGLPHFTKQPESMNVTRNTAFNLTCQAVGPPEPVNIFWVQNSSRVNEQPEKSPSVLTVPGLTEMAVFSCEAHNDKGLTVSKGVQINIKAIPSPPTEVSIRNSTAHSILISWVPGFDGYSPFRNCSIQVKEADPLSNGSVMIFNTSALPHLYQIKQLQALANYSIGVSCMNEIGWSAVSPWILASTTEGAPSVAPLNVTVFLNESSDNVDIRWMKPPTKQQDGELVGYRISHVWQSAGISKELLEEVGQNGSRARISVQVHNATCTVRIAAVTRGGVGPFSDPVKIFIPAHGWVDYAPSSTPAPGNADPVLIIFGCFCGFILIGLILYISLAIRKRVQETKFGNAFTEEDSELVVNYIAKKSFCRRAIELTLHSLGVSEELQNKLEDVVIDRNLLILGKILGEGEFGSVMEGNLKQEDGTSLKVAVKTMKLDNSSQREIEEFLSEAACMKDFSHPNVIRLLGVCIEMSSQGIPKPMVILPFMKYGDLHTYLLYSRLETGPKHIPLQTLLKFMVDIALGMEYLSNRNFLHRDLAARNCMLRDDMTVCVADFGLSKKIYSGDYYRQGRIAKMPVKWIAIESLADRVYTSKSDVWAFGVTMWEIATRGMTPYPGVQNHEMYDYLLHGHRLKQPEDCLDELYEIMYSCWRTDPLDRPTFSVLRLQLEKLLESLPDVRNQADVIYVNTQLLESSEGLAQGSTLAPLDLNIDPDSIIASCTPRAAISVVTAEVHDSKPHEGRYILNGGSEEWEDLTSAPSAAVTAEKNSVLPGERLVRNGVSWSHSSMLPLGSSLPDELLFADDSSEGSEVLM
B6: Speckle-type POZ protein (Homo sapiens), O43791 (parent)
chain: B1 chain
partner: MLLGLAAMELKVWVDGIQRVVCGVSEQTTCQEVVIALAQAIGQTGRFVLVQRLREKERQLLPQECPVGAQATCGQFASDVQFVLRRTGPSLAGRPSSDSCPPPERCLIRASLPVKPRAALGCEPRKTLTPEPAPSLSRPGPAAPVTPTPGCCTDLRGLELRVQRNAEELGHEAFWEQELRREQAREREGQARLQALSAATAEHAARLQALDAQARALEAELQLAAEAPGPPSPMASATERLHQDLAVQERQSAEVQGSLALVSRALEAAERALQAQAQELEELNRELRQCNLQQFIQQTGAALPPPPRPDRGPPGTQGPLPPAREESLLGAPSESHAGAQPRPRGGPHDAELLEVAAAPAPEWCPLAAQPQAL
B7: Speckle-type POZ protein (Homo sapiens), O43791 (parent)
chain: B1 chain
partner: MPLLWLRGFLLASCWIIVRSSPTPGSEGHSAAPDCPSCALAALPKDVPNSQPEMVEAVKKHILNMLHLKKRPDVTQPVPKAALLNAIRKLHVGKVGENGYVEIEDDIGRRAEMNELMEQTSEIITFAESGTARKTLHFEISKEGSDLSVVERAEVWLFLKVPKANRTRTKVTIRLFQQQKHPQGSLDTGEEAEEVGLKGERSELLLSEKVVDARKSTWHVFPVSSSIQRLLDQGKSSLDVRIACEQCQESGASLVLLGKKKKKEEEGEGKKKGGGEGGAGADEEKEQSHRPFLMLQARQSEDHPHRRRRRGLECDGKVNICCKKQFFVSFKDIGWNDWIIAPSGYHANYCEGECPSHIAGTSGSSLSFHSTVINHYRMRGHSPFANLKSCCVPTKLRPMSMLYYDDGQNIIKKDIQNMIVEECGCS

Variants of: B1
Settings: with mutyh_human MUTYH

effect of a mutation on the interaction | Variant
with no effect | F133V

Variants of: B1
Settings: with mutyh_human MUTYH
Remark: another data set of the same source

effect of a mutation on the interaction | Variant
with no effect | F102C

Variants of: B1
Settings: with mutyh_human MUTYH
Remark: another data set of the same source

effect of a mutation on the interaction | Variant
with no effect | Y87C

Variants of: B2
Settings: with nox3_human NOX3, Q9HBY0

effect of a mutation on the interaction | Variant
with no effect | F102C

Variants of: B2
Settings: with nox3_human NOX3, Q9HBY0
Remark: another data set of the same source

effect of a mutation on the interaction | Variant
with no effect | Y87C

Variants of: B2
Settings: with nox3_human NOX3, Q9HBY0
Remark: another data set of the same source

effect of a mutation on the interaction | Variant
with no effect | F133L

Variants of: B2
Settings: with nox3_human NOX3, Q9HBY0
Remark: another data set of the same source

effect of a mutation on the interaction | Variant
with no effect | F133V

Variants of: B3
Settings: with mp2k4_human MAP2K4, P45985

effect of a mutation on the interaction | Variant
with no effect | Y87C

Variants of: B3
Settings: with mp2k4_human MAP2K4, P45985
Remark: another data set of the same source

effect of a mutation on the interaction | Variant
with no effect | F102C

Variants of: B4
Settings: with gpc5_human GPC5, P78333

effect of a mutation on the interaction | Variant
with no effect | F102C

Variants of: B4
Settings: with gpc5_human GPC5, P78333
Remark: another data set of the same source

effect of a mutation on the interaction | Variant
with no effect | Y87C

Variants of: B4
Settings: with gpc5_human GPC5, P78333
Remark: another data set of the same source

effect of a mutation on the interaction | Variant
with no effect | F133L

Variants of: B4
Settings: with gpc5_human GPC5, P78333
Remark: another data set of the same source

effect of a mutation on the interaction | Variant
with no effect | F133V

Variants of: B5
Settings: with mertk_human MERTK

effect of a mutation on the interaction | Variant
with no effect | F133V

Variants of: B5
Settings: with mertk_human MERTK
Remark: another data set of the same source

effect of a mutation on the interaction | Variant
with no effect | F133L

Variants of: B5
Settings: with mertk_human MERTK
Remark: another data set of the same source

effect of a mutation on the interaction | Variant
with no effect | Y87C

Variants of: B5
Settings: with mertk_human MERTK
Remark: another data set of the same source

effect of a mutation on the interaction | Variant
with no effect | F102C

Variants of: B6
Settings: with rasf7_human RASSF7, Q02833

effect of a mutation on the interaction | Variant
with no effect | F102C

Variants of: B6
Settings: with rasf7_human RASSF7, Q02833
Remark: another data set of the same source

effect of a mutation on the interaction | Variant
with no effect | Y87C

Variants of: B6
Settings: with rasf7_human RASSF7, Q02833
Remark: another data set of the same source

effect of a mutation on the interaction | Variant
with no effect | F133L

Variants of: B6
Settings: with rasf7_human RASSF7, Q02833
Remark: another data set of the same source

effect of a mutation on the interaction | Variant
with no effect | F133V

Variants of: B7
Settings: with inhba_human INHBA

effect of a mutation on the interaction | Variant
with no effect | Y87C

Variants of: B7
Settings: with inhba_human INHBA
Remark: another data set of the same source

effect of a mutation on the interaction | Variant
with no effect | F102C

Variants of: B7
Settings: with inhba_human INHBA
Remark: another data set of the same source

effect of a mutation on the interaction | Variant
with no effect | F133L
